Data set [1] has as its target Vivid (VVD) truncated at the N-terminus by 36 residues, with an N-terminal 6xHis tag (Neurospora crassa) (UniProt Q9C3Y6).
Data set [2] deals with the molecule itself. Briefly: SDS-PAGE and Western blot of the aggregated pellet; purified VVD36 given a 5-min blue-light pulse, kept 24 h at 25°C in standard buffer (10% glycerol, 50 mM HEPES, 150 mM NaCl, 20 mM imidazole, pH 8), centrifuged; pellet run on SDS-PAGE and blotted against the 6xHis tag; with DTT present oligomer formation was limited.

For the molecule “catalase from Aspergillus niger (from UniProt P55303 1-730) (enzyme)”, the photoadduct mean lifetime of VVD with A. niger catalase at 2.34 uM (optical absorbance) in data set [1] is 1100 s.

B1: Vivid (VVD) truncated at the N-terminus by 36 residues, with an N-terminal 6xHis tag (domain or fragment, Neurospora crassa, UniProt Q9C3Y6 37-186, looked up)
chain: HTLYAPGGYDIMGYLIQIMNRPNPQVELGPVDTSCALILCDLKQKDTPIVYASEAFLYMTGYSNAEVLGRNCRFLQSPDGMVKPKSTRKYVDSNTINTMRKAIDRNAEVQVEVVNFKKNGQRFVNFLTMIPVRDETGEYRYSMGFQCETE
notes: Vivid (VVD), LOV photoreceptor of Neurospora crassa, wild type, first 36 amino acids deleted (VVD36); The plasmid came from B. R. Crane; The sample carries some self-oxidative damage (oxidised D82, Y87, F92, F159, N161 found in the aggregated pellet); also called VVD36; dark-VVD; not shown: His6, N-terminal, kept
Regarding B1, in data set [2], the binding result is reported as “binds”.

The values above are taken from PMC6054393, “Light induces oxidative damage and protein stability in the fungal photoreceptor Vivid” (PLoS ONE, 2018).
